Experimental data published in patent US10131691B2, “Compositions and methods for specific regulation of pyruvate dehydrogenase kinase” (THE BOARD OF TRUSTEES OF THE LELAND STANFORD JUNIOR …, priority 2011, dated 2018).
No end group written: not given here.

What was measured:
δPKC [1] = target: T1, δPKC (Homo sapiens, UniProt Q05655); test: Proteinase K sensitivity of recombinant δPKC; format: binding; settings: non-TAT conjugated peptide; vs no peptide or control peptide ΨδRACK
T1 construct: purchased Invitrogen
Description: Human recombinant δPKC (Invitrogen, Calif., USA; 50 ng; 0.625 pmole) was incubated with ΨPDK (non-TAT conjugated, 1 nmole) prior to addition of proteinase K (0.05 μg/ml) in 20 mM Tris-HCl, pH 7.4 containing 1 μM DTT. The reaction was stopped as indicated by adding 5 mM PMSF.
Since ΨPDK is derived from a PDK-like sequence in δPKC (FIG. 1B), it was reasoned that this peptide should act as a competitive inhibitor, selective for δPKC phosphorylation of PDK. To test this hypothesis directly, an in vitro kinase assay in which the ability of δPKC to phosphorylate PDK is determined was used.

βIPKC = βIPKC (Homo sapiens, UniProt P05771); test: Proteinase K sensitivity of βIPKC; format: binding
δPKC [2] = target: T2, δPKC (Rattus norvegicus, UniProt P09215); test: δPKC translocation into mitochondria in intact hearts (ex vivo I/R)
T2 construct: from tissue; host or cells: rat heart (ex vivo ischemia/reperfusion), mitochondrial fraction
Description: (§1) An ex vivo model of acute ischemic heart damage was used, which involves a 30 min equilibration period, followed by 30 min of global ischemia, which in turn is followed by 60 min of reperfusion. The hearts were perfused with 1 μM TAT or TAT-conjugated peptide. Normoxic control hearts were subjected to 90 min perfusion in the absence of ischemia. Coronary effluent was collected to determine creatine phosphokinase (CPK) release during the first 30 min of the reperfusion period. At the end of the reperfusion period, hearts were sliced into 1-mm-thick transverse sections and incubated in triphenyltetrazolium chloride solution (TTC, 1% in phosphate buffer, pH 7.4) at 37° C. for 15 min. Infarct size was expressed as a percentage of the risk zone (equivalent to total LV muscle mass) (methods described in Brandman et al., 2007, J. Biol. Chem., 282:4113-4123; Inagaki et al., 2003, Circulation, 108:869-875).
Rat hearts were homogenized in a buffer containing 210 mM mannitol, 70 mM sucrose, 5 mM MOPS and 1 mM EDTA followed by isolation of the mitochondria fraction (described in Churchill et al., 2008, J. Mol. Cell. Cardiol., 46:278-284) and identified by the presence of VDAC (MitoSciences, Eugene, Oreg., USA). The level of phosphorylated and unphosphorylated JNK1/2 was analyzed in the total fraction using respective specific antibodies (Cell Signaling, Danvers, Mass. and Santa Cruz Biotechnology, CA, USA). […]
Phosphorylation of the mitochondrial PDK by δPKC occurs only following myocardial infarction Under these conditions, δPKC translocates into the mitochondria (Churchill et al., 2005, Circ. Res., 97:78-85) where it has access to PDK. It was therefore first determined whether ΨPDK peptide affects δPKC translocation into the mitochondria. […] However, similar to the mitochondrial matrix protein, aldehyde dehydrogenase (ALDH2), the majority of δPKC was insensitive to proteolysis by PK (FIG. 4C; quantitated in FIG. 4D).

Drp1 = Drp1 phosphorylation in hearts subjected to I/R; set-up: species or system rat
Description: as §1

JNK = JNK phosphorylation in hearts subjected to I/R (Western blot); set-up: species or system rat
Description: as §1
Rat hearts were homogenized in a buffer containing 210 mM mannitol, 70 mM sucrose, 5 mM MOPS and 1 mM EDTA followed by isolation of the mitochondria fraction (described in Churchill et al., 2008, J. Mol. Cell. Cardiol., 46:278-284) and identified by the presence of VDAC (MitoSciences, Eugene, Oreg., USA). The level of phosphorylated and unphosphorylated JNK1/2 was analyzed in the total fraction using respective specific antibodies (Cell Signaling, Danvers, Mass. and Santa Cruz Biotechnology, CA, USA).
First, I/R-induced infarct size after treatment with ΨPDK or δV1-1 (Inagaki et al., 2003, Circulation, 108:869-875), was smaller than that in hearts treated with the control peptide or with ΨδRACK, the δPKC-specific activator or with δV1-5 (FIG. 6A). Second, similar data were obtained when determining the levels of released creatine phosphokinase (CPK), as a marker of myocardial infarction; CPK levels in the ΨPDK- or δV1-1-treated hearts were similar and were lower than those after treatment with control peptide, ΨδRACK or δV1-5 (FIG. 6B).
To begin determining the contribution of each of the amino acids on the effect of the peptide, Alanine scanning was used (Brunel et al., 2006, J. Virol., 80:1680-1687; Chen et al., J. Pep. Res., 2000, 56:147-156; Brems et al., 1992, Prot. Eng., 5:527-533) (substituting individual amino acid with an alanine). The resultant ΨPDK peptide analogs were then used in the same model of myocardial infarction, using CPK release and JNK phosphorylation as markers for cardiac injury. CPI release into the perfusates and pJNK in the hearts were determined after I/R in the presence of respective peptides and compared to the levels in hearts subjected to I/R in the presence of the control peptide. None of the peptides having a substitution had any significant biological activity (Table 1).

T2 sequence (P09215 whole entry, the tested form may be a part): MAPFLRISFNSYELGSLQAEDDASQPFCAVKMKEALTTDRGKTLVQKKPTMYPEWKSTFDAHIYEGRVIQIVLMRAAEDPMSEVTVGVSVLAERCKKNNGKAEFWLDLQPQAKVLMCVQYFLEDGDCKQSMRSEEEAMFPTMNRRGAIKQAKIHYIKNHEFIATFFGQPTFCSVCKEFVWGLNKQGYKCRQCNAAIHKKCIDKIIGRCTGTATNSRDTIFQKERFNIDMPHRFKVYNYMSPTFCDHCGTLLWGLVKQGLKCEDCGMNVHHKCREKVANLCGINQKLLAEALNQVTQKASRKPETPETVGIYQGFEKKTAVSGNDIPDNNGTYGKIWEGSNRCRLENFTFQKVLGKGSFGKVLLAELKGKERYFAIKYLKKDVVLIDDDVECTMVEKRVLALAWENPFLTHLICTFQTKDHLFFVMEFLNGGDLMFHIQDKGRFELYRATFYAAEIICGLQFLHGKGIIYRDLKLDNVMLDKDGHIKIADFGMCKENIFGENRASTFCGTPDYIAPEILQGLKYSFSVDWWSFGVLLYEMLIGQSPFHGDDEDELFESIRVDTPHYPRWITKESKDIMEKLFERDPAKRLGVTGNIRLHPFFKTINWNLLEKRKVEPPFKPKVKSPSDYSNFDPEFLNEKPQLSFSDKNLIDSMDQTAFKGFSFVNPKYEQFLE
T1 sequence (Q05655 whole entry): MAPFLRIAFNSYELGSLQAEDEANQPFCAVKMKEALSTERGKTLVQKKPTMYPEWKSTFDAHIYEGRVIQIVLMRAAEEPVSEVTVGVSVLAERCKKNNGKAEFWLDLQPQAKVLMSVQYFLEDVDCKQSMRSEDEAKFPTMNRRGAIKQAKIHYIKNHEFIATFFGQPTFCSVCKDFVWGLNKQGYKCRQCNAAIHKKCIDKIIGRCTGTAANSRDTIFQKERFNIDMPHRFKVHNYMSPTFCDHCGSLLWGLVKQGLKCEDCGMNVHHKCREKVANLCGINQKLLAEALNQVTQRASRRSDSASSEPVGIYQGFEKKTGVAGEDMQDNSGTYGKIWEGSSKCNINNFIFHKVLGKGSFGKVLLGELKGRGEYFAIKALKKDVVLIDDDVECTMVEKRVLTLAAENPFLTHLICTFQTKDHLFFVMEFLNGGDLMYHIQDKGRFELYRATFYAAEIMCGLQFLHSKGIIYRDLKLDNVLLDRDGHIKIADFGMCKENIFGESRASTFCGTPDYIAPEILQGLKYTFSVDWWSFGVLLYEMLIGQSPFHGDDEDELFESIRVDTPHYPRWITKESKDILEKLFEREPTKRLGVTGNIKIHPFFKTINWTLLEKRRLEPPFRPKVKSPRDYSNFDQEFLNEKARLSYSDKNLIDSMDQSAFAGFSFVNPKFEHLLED
βIPKC, sequence (P05771 whole entry): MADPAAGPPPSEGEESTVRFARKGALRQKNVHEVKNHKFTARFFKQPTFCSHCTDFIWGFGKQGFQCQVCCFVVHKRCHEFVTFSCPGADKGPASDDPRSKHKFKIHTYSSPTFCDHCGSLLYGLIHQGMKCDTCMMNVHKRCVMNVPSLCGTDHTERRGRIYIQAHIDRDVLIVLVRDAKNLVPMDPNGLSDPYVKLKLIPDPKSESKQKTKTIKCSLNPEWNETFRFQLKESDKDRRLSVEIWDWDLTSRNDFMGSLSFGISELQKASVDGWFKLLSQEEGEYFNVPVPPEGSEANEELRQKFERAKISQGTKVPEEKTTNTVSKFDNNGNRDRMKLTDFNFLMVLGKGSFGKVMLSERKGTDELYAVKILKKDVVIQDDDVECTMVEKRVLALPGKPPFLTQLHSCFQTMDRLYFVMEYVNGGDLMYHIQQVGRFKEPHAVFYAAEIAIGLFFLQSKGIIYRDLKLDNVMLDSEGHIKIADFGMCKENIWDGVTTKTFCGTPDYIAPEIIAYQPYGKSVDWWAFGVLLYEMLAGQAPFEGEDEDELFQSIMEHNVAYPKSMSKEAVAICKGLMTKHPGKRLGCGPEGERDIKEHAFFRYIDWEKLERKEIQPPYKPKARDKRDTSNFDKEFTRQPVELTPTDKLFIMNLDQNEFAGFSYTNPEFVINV

Substance: ALSTER (not fully specified (C-terminus); also: TAT47-57 conjugated via disulfide) [ΨPDK, for cells and hearts conjugated to TAT47-57 via disulfide bond]
- stability of δPKC to proteinase K digestion (δPKC [1]): more stable to PK digestion
- sensitivity of βIPKC to proteolysis by PK (βIPKC): unaffected
- δPKC entry into the mitochondria (proteinase K resistance) (δPKC [2]; following I/R): increased I/R-induced δPKC entry into the mitochondria
- δPKC association with the mitochondria (δPKC [2]; following I/R, vs control peptide): two-fold increase
- δPKC translocation to the mitochondria (δPKC [2]; normoxic condition): did not induce δPKC translocation to the mitochondria
- Drp1 phosphorylation (Drp1): caused an increase of Drp1 phosphorylation
- p-JNK/total JNK (JNK; ex vivo I/R hearts, 1 μM peptide): 0.4 ± 0.10
- I/R-induced JNK phosphorylation (in words) (JNK; ex vivo I/R, vs δV1-5 and ΨδRACK): reduced I/R-induced JNK phosphorylation
